Here are results for three substances from patent US7223734B2, “Plasma protein-binding ligands” (The American National Red Cross, priority 2002, dated 2007).

Non-standard residues stand in square brackets, D forms with d. No end group written: not given here. Some results are limits rather than exact numbers.

The target of assay [1] is T1, API (Homo sapiens, UniProt P01009).
T1 construct: from tissue; host or cells: human plasma (whole, fibrinogen-depleted or F1-Apo-depleted)
Nature of the assay: Purification of API from F1-Apo-depleted plasma on AKVSKG column (Example 7). It is filed as binding. The method, then:
(§1) Conditions that prevented the binding of albumin from F1-Apo depleted plasma were identified. The capture of albumin by AKVSKG (SEQ ID NO: 45) and D-WWLHIN (SEQ ID NO: 33) can be prevented in the presence of 50 mM caproic acid or 1.0–2.2 M NaCl, respectively. An example for API purification with AKVSKG (SEQ ID NO: 45) is provided. F1-Apo-depleted plasma (10.7 ml) containing 50 mM caproic acid, was applied at 0.4 ml/min (LV=30 cm/h; RT=5.1) onto a 2.0 ml column (CF=0.785 cm^2) that had been equilibrated with 0.14 M NaCl, 0.020 M sodium citrate, pH 7.0 (EQ buffer). After the column was washed with 19 CVs of EQ buffer to baseline, API protein was eluted with 2.0 M NaCl, 0.020 M sodium citrate, pH 6.0. The column was regenerated with 2.0 M guanidine-HCl, 2% Sarkosyl and 2% acetic acid and stored in 20% methanol.

In assay [2] the target is T1, API. Description: Primary screening of 6-mer library for API-binding ligands. The note with it: bead screening, immunodetection / radiolabel. The procedure: Peptide libraries attached to Toyopearl-AF Amino 650M resin or Tentagel resin were evaluated with 14C-labeled fibrinogen and API. All steps were performed at room temperature. Specifically, 20 mg of Toyopearl resin beads or 40 mg of Tentagel resin beads were suspended in 20% methanol for a minimum of 2 hours in 15 ml conical polypropylene tubes (Corning). After rinsing with distilled water, the resin beads were equilibrated in 0.15 M NaCl, 0.020 M sodium citrate, pH 7.3. The resin beads were then blocked for 2 hours with 1% casein (Sigma) in 0.15M NaCl, 0.020M sodium citrate, pH 7.3. Following blocking, the resin beads were centrifuged and the supernatant removed. A solution containing 1 mM of C^14-labeled fibrinogen or 30 μM of C^14-labeled API was applied to the resin beads in the blocking solution in the presence of 0.1% Tween-20 (Sigma). The materials were incubated for 2 hours. The resin beads were washed with 0.15 M NaCl, 0.020 M sodium citrate, 0.05% Tween-20, pH 7.3, in a batch method (fibrinogen ligands) or in disposable BioRad 10 ml columns (API ligands) until radiation counts reached the background level of less than 40 DPM. The resin beads were divided into separate tubes to obtain approximately 5–10 mg of resin beads per sheet. This was accomplished by mixing each aliquot of resin beads with 20–22 ml of 1% low melting agarose solution (Sigma) at less than 40° C., and rapidly pouring the mixture onto GelBond® film sheets (BMA Cat. No. 53749, 16×18 cm; Cat. No. 53759, 12.5×24.5 cm). Spreading of the resin beads to the edge of the gel sheets was prevented by creating frames (about 23 cm×about 10 cm or about 15 cm×about 15 cm) with several layers of masking tape. About 20–22 ml of resin bead-agarose mixture was plated on each GelBond sheet. Special care was taken to spread the beads in an even monolayer to facilitate identification and isolation of individual “hot” beads. The agarose gel was then air-dried overnight and placed, bead side down, on X-ray film (Kodak Biomax MR). The agarose and autoradiography film were exposed for 4–14 days followed by a second exposure of 7 days in an about 20 cm×about 25 cm stainless steel cassette. Afterwards, the films were taped together and marked with several staple holes to ensure proper alignment of beads in agarose to film. After the films were developed, the positive beads that appeared on both films were identified under the microscope and picked by aligning the developed film(s) and agarose gel via the staple holes. Beads to be sequenced were carefully picked by cutting a square trench around the bead with a scalpel, and hydrating this area with distilled water. […]

The target of assay [3] is T2, albumin (Homo sapiens, UniProt P02768).
T2 construct: from tissue; host or cells: human plasma (fibrinogen-depleted or F1-Apo-depleted)
Nature of the assay: Albumin in AKVSKG / D-WWLHIN evaluation (Example 7). The note with it: for binding of albumin in plasma: initial evaluation. It is filed as binding. The method, then:
as §1

In assay [4] the target is T2, albumin. Description: Albumin in HFVAPH column run (Example 6). It is filed as binding. The procedure: (§2) Fibrinogen and Apo-A1 lipoprotein-depleted plasma (prepared in Example 5) was loaded at a linear velocity of 30 cm/hour (0.4 ml/min; RT=5.1) onto 2.0 ml column (CF=0.785 cm^2) that had been equilibrated with 0.14 M NaCl, 0.020 M sodium citrate, pH 7.0 (EQ buffer). After the column was washed with EQ buffer and 2.0 M NaCl, 0.020 M sodium citrate, pH 6.0, to baseline, the API protein was eluted with 2.0 M NaCl, 1% Tween 20, 0.020 M sodium citrate, pH 6.0. The column was regenerated with 2.0 M guanidine-HCl, 2% Sarkosyl and 2% acetic acid and stored in 20% methanol. SDS-PAGE analysis of in-process samples (reduced and non-reduced samples) was performed using a Novex 8–16% gradient gel. Not all of the API was quantitatively eluted, but could be eluted using 2M guanidine. Purification of API protein to approximately 70% purity was accomplished with ligand HFVAPH (SEQ ID NO: 46) (isolated from an L-Library).

The target in assay [5] is T1, API. Nature of the assay: Purification of API from F1-Apo-depleted plasma on HFVAPH column (Example 6). It is filed as binding. The procedure:
as §2

Assay [6] concerns the target T3, Apo-A1 lipoprotein (Homo sapiens, UniProt P02647).
T3 construct: from tissue; host or cells: human plasma (whole or fibrinogen-depleted)
Description: Apo-A1 lipoprotein purification from fibrinogen-depleted plasma on peptide resin column (Example 4). It is filed as binding. The procedure: Apo-A1 lipoprotein purification was accomplished with D-WWLHIN (SEQ ID NO: 33) peptides and several analogs. Indeed, about 100% Apo-A1 lipoprotein depletion from plasma was repeatedly obtained with D-WWLHAN (SEQ ID NO: 56) and D-WWLHIN (SEQ ID NO: […]). Fourteen milliliters of fibrinogen-depleted plasma was loaded onto a 2.3 ml column (CF=0.785 cm^2) at 0.4 ml/min. (LV=30 cm/H; RT=5.8) that had been equilibrated with 0.14 M NaCl, 0.020 M sodium citrate, pH 7.0 (EQ buffer). After the column was washed with EQ buffer to baseline, Apo-A1 lipoprotein was eluted with 2.0 M NaCl, 1% Tween-20, 0.020M sodium citrate, pH 7.0. The column was regenerated with 2.0 M guanidine-HCl, 2% Sarkosyl, and 2% acetic acid and stored in 20% methanol.

Setting [7] is: Elution Pool (without dialysis).

T1 sequence (P01009 25-418): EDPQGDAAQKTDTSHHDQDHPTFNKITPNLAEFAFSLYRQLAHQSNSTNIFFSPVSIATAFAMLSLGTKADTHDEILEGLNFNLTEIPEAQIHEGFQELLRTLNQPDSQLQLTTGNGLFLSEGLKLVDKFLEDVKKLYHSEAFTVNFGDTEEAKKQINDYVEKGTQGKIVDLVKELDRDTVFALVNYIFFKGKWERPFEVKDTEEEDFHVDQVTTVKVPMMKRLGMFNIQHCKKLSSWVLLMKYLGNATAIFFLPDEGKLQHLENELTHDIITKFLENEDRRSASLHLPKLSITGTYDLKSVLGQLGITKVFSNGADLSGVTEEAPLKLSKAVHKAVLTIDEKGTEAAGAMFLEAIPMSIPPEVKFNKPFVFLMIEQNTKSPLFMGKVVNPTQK
T3 sequence (P02647 25-267 limits assumed): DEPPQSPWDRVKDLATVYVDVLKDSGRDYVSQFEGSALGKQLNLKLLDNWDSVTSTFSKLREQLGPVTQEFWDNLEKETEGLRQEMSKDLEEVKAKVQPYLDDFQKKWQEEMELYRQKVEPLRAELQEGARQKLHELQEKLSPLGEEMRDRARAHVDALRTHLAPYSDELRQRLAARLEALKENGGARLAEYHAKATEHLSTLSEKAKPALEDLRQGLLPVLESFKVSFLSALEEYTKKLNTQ

For the substance “AKVSKG ([dA]KVSKG; not fully specified (residues 2, 3, 4, 5))”, in assay [1] (2.0 M NaCl elution pool, nephelometric analysis), the “captured API protein recovered” value came to 71%. The API was 0.05 mg/mL in assay [1] (Elution (1% Tween)); 0.76 mg/mL in assay [1] (Elution (2 M NaCl)); 0.07 mg/mL in assay [1] (Flow through + Post Wash, plasma load 10.7 ml, 1.19 mg/ml, 50 mM caproic acid); 0.11 mg/mL in assay [1] (Wash (0.3 M NaCl)); 0.06 mg/mL in assay [1] (Wash, first 2.0 ml fraction); less than 0.04 mg/mL in assay [1] (Wash, second 2.0 ml fraction). Further, the “Total API” value was determined as 0.5 mg in assay [1] (Elution (1% Tween)); 7.6 mg in assay [1] (Elution (2 M NaCl)); 2.0 mg in assay [1] (Flow through + Post Wash, load 12.7 mg); 1.3 mg in assay [1] (Wash (0.3 M NaCl)); 0.1 mg in assay [1] (Wash, first 2.0 ml fraction). Moreover, the “purity of the API eluate” value in assay [1] (densitometric analysis) is given as 85%. Also, the “identified as API-binding peptide ligand from the 6-mer library” value (shortened to “identified as API-binding peptide ligand”) in assay [2] was “API-binding”. Besides, the Albumin in assay [3] (Elution (1% Tween)) is less than 0.02 mg/mL; in assay [3] (Flow through + Post Wash, nephelometric determination, load 20 mg/ml), 7.8 mg/mL; in assay [3] (Wash (0.3 M NaCl)), 0.63 mg/mL; in assay [3] (Wash, first 2.0 ml fraction) it was 0.14 mg/mL; in assay [3] (Wash, second 2.0 ml fraction), 0.06 mg/mL. In addition, in assay [3] (in the presence of 50 mM caproic acid), the “capture of albumin from F1-Apo depleted plasma” value was “prevented”. Further, the “binding of albumin in plasma” value in assay [3] is “binds albumin in addition to API protein”.

As for HFVAPH, the “identified as API-binding peptide ligand” value in assay [2] was “API-binding”. Further, the Albumin is less than 0.02 mg/mL in assay [4] (2 M Guanidine #23); less than 0.02 mg/mL in assay [4] (Elution Pool (with dialysis)); less than 0.02 mg/mL in assay [4] (setting [7]); 12.6 mg/mL in assay [4] (Flow through, load 22.6 mg/ml); 0.93 mg/mL in assay [4] (Postwash). Further, in assay [4] (in the presence of sodium citrate), the “albumin binding from plasma” value is given as “does not bind albumin”. For the same substance, the “purity of purified API protein” value in assay [5] is on record as “approximately 70%”. In addition, the API in assay [5] (2 M Guanidine #23) was 0.1 mg/mL; in assay [5] (Elution Pool (with dialysis), 2.0 M NaCl, 1% Tween 20) it was 0.15 mg/mL; in assay [5] (Elution Pool (without dialysis), 2.0 M NaCl, 1% Tween 20), 0.21 mg/mL; in assay [5] (Flow through, load 9.5 ml, 0.74 mg/ml), 0.21 mg/mL; in assay [5] (Postwash) it was less than 0.04 mg/mL. Also, the “Total API” value was determined as 0.4 mg in assay [5] (2 M Guanidine #23); 1.2 mg in assay [5] (Elution Pool (with dialysis)); 1.68 mg in assay [5] (setting [7]); 3.36 mg in assay [5] (Flow through, load 7.03 mg).

With “WWLHIN ([dW]WLHIN; not fully specified (residues 2, 3, 4, 5, 6)) [D-WWLHIN]”, in assay [2], the “identified as API-binding peptide ligand” value is given as “API-binding”. In addition, the “Apo-A1 lipoprotein depletion from plasma” value in assay [6] is listed as “about 100%”. Moreover, the “capture of albumin from F1-Apo depleted plasma” value in assay [3] (in the presence of 1.0–2.2 M NaCl) was “prevented”. For the same substance, in assay [3], the “binding of albumin in plasma” value is listed as “binds albumin in addition to API protein”.
